US20220112291A1 (Pfizer, published 2022)

How the values were obtained:
[1] = biological target: T1, human CD1a expressed on cells (human, UniProt P06126 17-327); test: cell-based or functional assay
[2] = biological target: T2, human single-chain CD1a-β2M recombinant protein (Human B2M-CD1a ECD-Avi-His6) (human); test: SPR (Biacore 8K, 37 °C), Ab571 captured by anti-human Fc, human CD1a as analyte, 1:1 Langmuir fit; mean ± SD, n = 6
T2 construct: Biotinylated in the HTRF, phage selection and Gyrolab assays; also called human CD1a; CD1a protein

[3] = biological target: Human CD1c (recombinant; Human B2M-CD1c ECD-His6) (human); test: ELISA, plates coated with recombinant CD1c, titrated Ab571
Sequence of Human CD1c (recombinant; Human B2M-CD1c ECD-His6) (human) (chain, as listed by the source limits assumed): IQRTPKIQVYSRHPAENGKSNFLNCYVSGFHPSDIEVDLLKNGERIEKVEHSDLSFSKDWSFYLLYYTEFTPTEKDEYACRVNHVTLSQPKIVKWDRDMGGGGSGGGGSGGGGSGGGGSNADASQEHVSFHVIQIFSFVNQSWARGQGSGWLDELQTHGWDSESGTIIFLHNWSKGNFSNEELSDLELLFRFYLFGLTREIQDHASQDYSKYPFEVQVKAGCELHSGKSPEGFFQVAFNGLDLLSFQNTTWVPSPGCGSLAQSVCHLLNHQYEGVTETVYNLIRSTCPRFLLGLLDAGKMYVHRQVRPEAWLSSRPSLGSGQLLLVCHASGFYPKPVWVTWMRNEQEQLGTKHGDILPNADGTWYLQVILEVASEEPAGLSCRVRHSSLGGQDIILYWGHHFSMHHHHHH

[4] = biological target: Human CD1d (recombinant; Human B2M-CD1d ECD-His6) (human); test: ELISA, plates coated with recombinant CD1d, titrated Ab571
Sequence of Human CD1d (recombinant; Human B2M-CD1d ECD-His6) (human) (chain, as listed by the source limits assumed): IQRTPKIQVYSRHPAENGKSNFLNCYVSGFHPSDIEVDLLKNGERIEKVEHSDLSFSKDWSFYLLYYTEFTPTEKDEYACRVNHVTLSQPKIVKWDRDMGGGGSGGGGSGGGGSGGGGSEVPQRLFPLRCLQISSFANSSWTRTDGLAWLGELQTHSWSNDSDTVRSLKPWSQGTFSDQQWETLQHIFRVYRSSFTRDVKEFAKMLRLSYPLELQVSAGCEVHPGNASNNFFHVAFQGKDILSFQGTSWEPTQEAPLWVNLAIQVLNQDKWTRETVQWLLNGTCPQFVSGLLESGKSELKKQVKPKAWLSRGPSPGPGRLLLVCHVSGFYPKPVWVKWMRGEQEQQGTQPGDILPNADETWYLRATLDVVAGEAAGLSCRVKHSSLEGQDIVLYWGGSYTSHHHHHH

[5] = biological target: T2, human single-chain CD1a-β2M recombinant …; test: ELISA, plates coated with recombinant human CD1a, titrated Ab571
[6] = biological target: T3, cynomolgus CD1a-β2M recombinant protein (Cyno B2M-CD1a ECD-Avi-His6) (cynomolgus monkey); test: SPR (Biacore 8K, 37 °C), Ab571 captured by anti-human Fc, cyno CD1a as analyte, 1:1 Langmuir fit; mean ± SD, n = 6
T3 construct: also called cyno CD1a; cynomolgus monkey CD1a
T3 chain: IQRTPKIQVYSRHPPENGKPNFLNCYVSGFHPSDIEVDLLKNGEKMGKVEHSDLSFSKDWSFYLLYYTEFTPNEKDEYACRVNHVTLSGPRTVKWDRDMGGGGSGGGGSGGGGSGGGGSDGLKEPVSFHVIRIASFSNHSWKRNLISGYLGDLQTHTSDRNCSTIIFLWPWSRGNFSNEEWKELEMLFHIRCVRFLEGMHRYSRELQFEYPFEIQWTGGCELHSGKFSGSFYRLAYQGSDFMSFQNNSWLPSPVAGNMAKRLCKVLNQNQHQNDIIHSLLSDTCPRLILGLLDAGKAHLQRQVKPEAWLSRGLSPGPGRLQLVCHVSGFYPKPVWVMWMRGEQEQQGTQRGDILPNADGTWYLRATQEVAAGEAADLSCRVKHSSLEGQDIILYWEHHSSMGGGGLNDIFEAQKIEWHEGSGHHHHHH

[7] = biological target: T3, cynomolgus CD1a-β2M recombinant protein …; test: SPR (Biacore 8K, 37 °C), Ab571 captured by anti-human Fc, cyno CD1a as analyte, 1:1 Langmuir fit
[8] = biological target: T3, cynomolgus CD1a-β2M recombinant protein …; test: Surface Plasmon Resonance (summary table; same experiment as Table 7)
[9] = biological target: T2, human single-chain CD1a-β2M recombinant …; test: as above
[10] = biological target: T1, human CD1a expressed on cells; test: cell-based or functional assay; remark: listed apart in the source
[11] = biological target: T2, human single-chain CD1a-β2M recombinant …; test: SPR (Biacore), IgG; antigen taken as human CD1a
Human C1q = biological target: T4, Human C1q (human, UniProt P02745 23-245; P02746 28-253; P02747 29-245); test: in vitro human C1q binding assay
T4 construct: Source and form of C1q not described; also called Clq
T4 sequence (P02745 23-245 limits assumed, chain 1 of 3): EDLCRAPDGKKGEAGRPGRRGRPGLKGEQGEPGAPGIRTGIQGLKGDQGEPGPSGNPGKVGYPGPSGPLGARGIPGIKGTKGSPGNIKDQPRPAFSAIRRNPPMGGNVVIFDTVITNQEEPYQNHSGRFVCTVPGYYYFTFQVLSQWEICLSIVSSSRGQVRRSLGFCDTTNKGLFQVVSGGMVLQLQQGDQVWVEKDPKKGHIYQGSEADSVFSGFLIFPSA
T4 sequence (P02746 28-253 limits assumed, chain 2 of 3): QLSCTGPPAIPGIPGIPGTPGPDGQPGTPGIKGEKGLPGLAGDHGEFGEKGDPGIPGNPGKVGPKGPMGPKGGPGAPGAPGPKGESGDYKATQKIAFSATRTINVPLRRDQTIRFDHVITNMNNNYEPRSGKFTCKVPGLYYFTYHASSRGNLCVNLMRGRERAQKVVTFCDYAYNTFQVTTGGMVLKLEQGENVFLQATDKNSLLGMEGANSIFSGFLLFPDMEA
T4 sequence (P02747 29-245 limits assumed, chain 3 of 3): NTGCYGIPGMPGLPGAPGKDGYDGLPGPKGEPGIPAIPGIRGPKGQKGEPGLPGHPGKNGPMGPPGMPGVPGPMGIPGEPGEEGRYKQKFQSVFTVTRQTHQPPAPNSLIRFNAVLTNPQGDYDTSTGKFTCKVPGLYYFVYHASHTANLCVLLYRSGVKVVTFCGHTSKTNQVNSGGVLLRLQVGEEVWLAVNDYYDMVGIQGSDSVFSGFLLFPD

[12] = biological target: T1, human CD1a expressed on cells; test: flow cytometry, AF-647-conjugated Ab571 on primary human monocyte-derived dendritic cells; average
[13] = biological target: Human CD1b (recombinant; Human B2M-CD1b ECD-His6) (human); test: ELISA, plates coated with recombinant CD1b, titrated Ab571
Sequence of Human CD1b (recombinant; Human B2M-CD1b ECD-His6) (human) (chain, as listed by the source limits assumed): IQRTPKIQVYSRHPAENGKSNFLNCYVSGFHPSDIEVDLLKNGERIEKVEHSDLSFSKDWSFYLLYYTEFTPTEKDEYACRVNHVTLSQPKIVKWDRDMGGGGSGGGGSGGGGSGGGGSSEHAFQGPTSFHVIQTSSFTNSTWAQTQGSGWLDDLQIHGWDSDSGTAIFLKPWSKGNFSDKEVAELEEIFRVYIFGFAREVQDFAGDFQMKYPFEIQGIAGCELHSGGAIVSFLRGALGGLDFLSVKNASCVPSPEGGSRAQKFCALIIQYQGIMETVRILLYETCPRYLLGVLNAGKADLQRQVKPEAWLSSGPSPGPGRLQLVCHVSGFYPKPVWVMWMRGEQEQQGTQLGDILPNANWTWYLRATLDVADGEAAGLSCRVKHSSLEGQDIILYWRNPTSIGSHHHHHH

[14] = biological target: T2, human single-chain CD1a-β2M recombinant …; test: SPR (Biacore 8K, 37 °C), Ab571 captured by anti-human Fc, human CD1a as analyte, 1:1 Langmuir fit

T1 sequence (P06126 17-327): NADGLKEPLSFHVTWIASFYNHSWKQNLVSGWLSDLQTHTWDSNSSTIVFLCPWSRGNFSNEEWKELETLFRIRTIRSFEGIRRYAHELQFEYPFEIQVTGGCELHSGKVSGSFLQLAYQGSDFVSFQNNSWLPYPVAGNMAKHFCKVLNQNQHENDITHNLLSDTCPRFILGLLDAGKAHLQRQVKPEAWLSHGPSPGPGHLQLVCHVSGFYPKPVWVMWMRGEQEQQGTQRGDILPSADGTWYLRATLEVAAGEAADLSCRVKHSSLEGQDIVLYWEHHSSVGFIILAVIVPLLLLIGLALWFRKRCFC

Inhibition of CD69 expression, IC50 [1]: 1.11 nM | Kd [2]: 0.181 nM | binding result [3]: no binding | binding result [4]: no binding | EC50 [5]: 0.00652 nM | Kd [6]: 0.0604 nM | koff [7]: 9.8e-05 s⁻¹ | kon [7]: 1.64e+06 M⁻¹ s⁻¹ | Kd [8]: 0.06 nM | Kd [9]: 0.181 nM | Human Jurkat T cell Activation: IC50 CD69 Expression [10]: 0.894 nM | Human Jurkat T cell Activation: IC50 IL-2 [10]: 0.268 nM | Kd [11]: 0.17 nM | EC50 [12]: 7.83 nM | binding result [13]: no binding | koff [14]: 0.000228 s⁻¹ | kon [14]: 1.26e+06 M⁻¹ s⁻¹
B1: Ab571 (antibody, human IgG1, kappa)
heavy: EVQLVESGGGLVQPGGSLRLSCAASGFTFTDHYMTWVRQAPGKGLEWVAFIRNKAGGYTTESNPAVKGRFTISRDNAKNSLYLQMNSLRAEDTAVYYCARETTGIPTGWFAYWGQGTLVTVSSASTKGPSVFPLAPSSKSTSGGTAALGCLVKDYFPEPVTVSWNSGALTSGVHTFPAVLQSSGLYSLSSVVTVPSSSLGTQTYICNVNHKPSNTKVDKKVEPKSCDKTHTCPPCPAPEAAGAPSVFLFPPKPKDTLMISRTPEVTCVVVDVSHEDPEVKFNWYVDGVEVHNAKTKPREEQYNSTYRVVSVLTVLHQDWLNGKEYKCKVSNKALPAPIEKTISKAKGQPREPQVYTLPPSREEMTKNQVSLTCLVKGFYPSDIAVEWESNGQPENNYKTTPPVLDSDGSFFLYSKLTVDKSRWQQGNVFSCSVMHEALHNHYTQKSLSLSPGK
light: DIQMTQSPSSLSASVGDRVTITCLASEDIYFDLAWYQQKPGKAPKLLIYGGDRLKEGVPSRFSGSGSGTDYTLTISSLQPEDFATYYCQQSYSYPYTFGQGTKLEIKRTVAAPSVFIFPPSDEQLKSGTASVVCLLNNFYPREAKVQWKVDNALQSGNSQESVTEQDSKDSTYSLSSTLTLSKADYEKHKVYACEVTHQGLSSPVTKSFNRGEC
notes: Lead optimized variant of Ab138; human IgG1 effector null / kappa; HC with or without terminal lysine; Used AF-647- or FITC-conjugated in the dendritic cell flow cytometry assays; also called FITC-Ab571; AF-647-conjugated Ab571
binding result (Human C1q): no binding (tested: Up to 30 µg/mL (C1q))
